In patent publication US20200190186A1:

What was measured:
mouse TIM3 (mouse) [1] = target: mouse TIM3 (mouse) (UniProt Q8VIM0); assay: binding to activated mouse T cells; method not stated
mouse TIM3 (mouse) [2] = target: mouse TIM3 (mouse) (UniProt Q8VIM0); assay: binding to activated mouse T cells, compared with TIM3.18 on human TIM-3

Chain of mouse TIM3 (mouse) (Q8VIM0 20-281): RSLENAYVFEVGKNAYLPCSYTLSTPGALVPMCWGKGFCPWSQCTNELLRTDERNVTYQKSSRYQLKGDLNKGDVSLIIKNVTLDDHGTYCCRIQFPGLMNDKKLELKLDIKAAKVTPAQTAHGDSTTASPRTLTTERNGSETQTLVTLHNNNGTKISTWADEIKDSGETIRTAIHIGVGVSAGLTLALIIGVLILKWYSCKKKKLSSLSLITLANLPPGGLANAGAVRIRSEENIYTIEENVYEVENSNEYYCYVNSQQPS

EC50 (mouse TIM3 (mouse) [1]): 1.7 nM
fold weaker EC50 than TIM3.18 on human TIM-3 (mouse TIM3 (mouse) [2]): 17 fold
Substance: RMT3-23, rat anti-mouse TIM-3 commercial antibody (Bio-X-Cell)
